The target of one assay is T1, TMEM-180 (Homo sapiens, UniProt Q14CX5).
T1 construct: endogenous in cells; host or cells: DLD-1 colon cancer cell line (parent / wild type); culture supernatant exosomes in A20
T1 sequence (Q14CX5 1-517): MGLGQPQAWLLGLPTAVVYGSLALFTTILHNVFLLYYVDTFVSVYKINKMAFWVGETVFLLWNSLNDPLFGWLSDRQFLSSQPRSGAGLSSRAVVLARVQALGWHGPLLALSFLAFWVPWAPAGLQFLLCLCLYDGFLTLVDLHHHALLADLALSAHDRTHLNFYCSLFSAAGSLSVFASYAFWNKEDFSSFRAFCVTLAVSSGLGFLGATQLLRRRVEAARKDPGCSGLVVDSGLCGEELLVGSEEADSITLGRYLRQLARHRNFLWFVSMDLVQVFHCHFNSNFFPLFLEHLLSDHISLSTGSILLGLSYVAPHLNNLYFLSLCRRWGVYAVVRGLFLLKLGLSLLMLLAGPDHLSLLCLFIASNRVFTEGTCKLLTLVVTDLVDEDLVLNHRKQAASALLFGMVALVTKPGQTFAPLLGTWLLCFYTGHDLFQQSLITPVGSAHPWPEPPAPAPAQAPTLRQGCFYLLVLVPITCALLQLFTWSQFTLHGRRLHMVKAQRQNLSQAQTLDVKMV
Nature of the assay: FACS of DLD-1 parent line and TMEM-180 knockout line. It counts as binding. How it is done:
The plate was centrifuged for 3 minutes at 440×g and 4° C. followed by removing the supernatant, adding antibody-producing hybridoma culture supernatant or antibody solution to the cell pellet at 50 μL/well and suspending therein. After allowing to react for 45 minutes on ice, the plate was washed three times with a mixture of 0.1% BSA, 2 mM EDTA and PBS at 200 μL/well. The supernatant was removed and secondary antibody was added to the cell pellet at 50 μL/well followed by suspending the cells therein. […] After allowing to react for 45 minutes on ice, the plate was washed three times with a mixture of 0.1% BSA, 2 mM EDTA and PBS at 200 μL/well. […] The cells stained in this manner were measured using a flow cytometer such as the Guava easyCyte 8HT (Merck Millipore Corporation) followed by analysis of the resulting data using FlowJO (Tomy Digital Biology Co., Ltd.). FACS analysis was carried out using colon cancer, brain tumor and hematologic cancer.
Flow cytometry was carried out in accordance with the procedure described in the above-mentioned section 3. […] The supernatant of a culture of hybridoma producing rat IgM antibody clone 365 was used as a negative control after similarly diluting to 1 μg/mL. […] A mixture of RPMI and 10% FBS was used to dilute each of the antibodies. Furthermore, antibody concentration in the hybridoma culture supernatant was measured by rat IgM-specific ELISA (Bethyl Laboratories).

The test system of a further assay is DLD-1 colon cancer cells. Briefly: Fluorescent immunostaining of DLD-1 colon cancer cells. In kind it is binding, human. The note with it: fixed and permeabilized DLD-1; antibody concentrations of clones not aligned; FIG. 4. How it is done: DLD-1 cells were added to a 96-well plate (Corning Incorporated, CeIIBIND) to a concentration of 5×10^3 cells/well and subjected to cell staining after culturing for 2 days. The cells were subjected to fixation and permeation treatment in the manner indicated below. After washing the cell culturing plate twice with PBS at 200 μL/well, the washings were removed followed by the addition of 4% para-formaldehyde-phosphate buffer (Wako Pure Chemical Industries, Ltd.) containing 0.1% TRITON™ (surfactant) X-100 (Wako Pure Chemical Industries, Ltd.) at 100 µL/well while cooling with ice and fixing the cells for 10 minutes. After removing the fixation solution, the plate was washed once with PBS at 200 μL/well and once with a mixture of 1% FBS in PBS at 200 μL/well to obtain a cell-immobilized plate. The cells were stained in the manner indicated below. Namely, after removing medium from the non-immobilized cell culturing plate and removing washings from the cell-immobilized plate, […] hybridoma culture supernatant or diluted antibody solution was added at 50 μL/well. After allowing to react for 1 hour on ice, the plate was washed once with PBS at 200 μL/well and twice with a mixture of 1% FBS in PBS at 200 μL/well. After removing the washings, a mixture of 5 μg/mL ALEXAFLUOR 647@ (fluorescent compound) goat anti-rat IgG (H-L), 2 μg/mL Hoechst 33342 and 1% FBS/PBS was added at 50 μL/well. After allowing to react for 1 hour on ice, the plate was washed twice with PBS at 200 μL/well. PBS was then added at 50 μL/well followed by measuring with ArrayScan (Thermo Fisher Scientific Inc.).

A further assay has as its system brain tumor cell lines. Briefly: Flow cytometry (FACS) with anti-TMEM-180 IgM clones, brain tumor. It counts as binding. The settings on record: four types of brain tumors; FIG. 3. As for the experimental part: (§1) Cancer cells targeted for measurement were cultured in medium and then added to a V-bottom 96-well plate (Corning Incorporated) to a concentration of 1×10^5 cells/well. The plate was centrifuged for 3 minutes at 440×g and 4° C. followed by removing the supernatant, adding antibody-producing hybridoma culture supernatant or antibody solution to the cell pellet at 50 μL/well and suspending therein. After allowing to react for 45 minutes on ice, the plate was washed three times with a mixture of 0.1% BSA, 2 mM EDTA and PBS at 200 μL/well. The supernatant was removed and secondary antibody was added to the cell pellet at 50 μL/well followed by suspending the cells therein. ALEXAFLUOR 647@ (fluorescent compound) goat anti-rat IgG (H-L) (Life Technologies Corporation) was used for the secondary antibody after diluting 400-fold with a mixture of 0.1% BSA, 2 mM EDTA and PBS. After allowing to react for 45 minutes on ice, the plate was washed three times with a mixture of 0.1% BSA, 2 mM EDTA and PBS at 200 μL/well. After removing the supernatant, 50 ng/mL of propidium iodide, 0.1% BSA, 2 mM EDTA and PBS were added to the cell pellet at 250 µL/well followed by suspending therein. The cells stained in this manner were measured using a flow cytometer such as the Guava easyCyte 8HT (Merck Millipore Corporation) followed by analysis of the resulting data using FlowJO (Tomy Digital Biology Co., Ltd.). FACS analysis was carried out using colon cancer, brain tumor and hematologic cancer.

A further assay relates to colon cancer cell lines. Nature of the assay: Flow cytometry (FACS) with anti-TMEM-180 IgM clones, colon cancer. In kind it is binding. The note with it: six types of colon cancers; FIG. 3. How it is done:
as §1

The test system of another assay is colon cancer DLD-1 cells. Briefly: Cytocidal effect of anti-TMEM-180 IgM antibody (WST-8), DLD-1. It counts as cell-based, human. The note with it: hybridoma culture supernatant adjusted to 80, 20 or 5 μg/mL, 96 hours, FIGS. 7 and 8. How it is done:
(§2) DLD-1 cells and K562 cells were added to a 96-well plate at 1×10^3 cells/100 μL/well followed by culturing for 24 hours. 50 μL of medium were removed from each well of the 96-well plate followed by the addition of rat IgM antibody clone 98-producing hybridoma culture supernatant or rat IgM antibody clone 101-producing hybridoma culture supernatant, in which antibody concentration had been adjusted to 80 μg/mL, 20 μg/mL or 5 μg/mL, at 50 μL/well. Here, n number in each culture condition was 3, and wells containing medium only were prepared as controls. […] After culturing for 96 hours, WST-8 (Dojindo Laboratories, Cell Counting Kit-8) was added at 10 μL/well followed by measuring absorbance at 450 nm with a microplate reader after culturing for 3 hours. The relative values of absorbance at each antibody concentration were plotted by plotting antibody concentration on the horizontal axis and assigning a value of 1 to the optical absorbance of the well containing medium only. […] Cytocidal effects were also observed for other colon cancer cells Difi, Carl, SW480 and Colo201.

The test system of assay [1] is hematologic tumor K562 cells. Briefly: Cytocidal effect of anti-TMEM-180 IgM antibody (WST-8), K562. In kind it is cell-based. The note with it: hybridoma culture supernatant adjusted to 80, 20 or 5 μg/mL, 96 hours, FIGS. 7 and 8. How it is done: as §2
The test system of assay [2] is cell lines derived from cancers (ATCC and JCRB). Briefly: Reactivity of antibodies to cancer-derived cell lines by FACS (Table 23). In kind it is binding. The note with it: Cancer Type: Colon. How it is done:
as §1
Cancer-detection rates were tested using monoclonal antibodies (the 669 antibody, 1052 antibody, 1105 antibody, and 1361 antibody).
In this Example, the reactivity of the antibodies to the cell lines derived from cancers which were obtained from ATCC and JCRB was analyzed by FACS.

For assay [3] the test system is unchanged. The assay is described as above. In kind it is binding.

Substitutions are numbered along the chain they refer to.

The text below walks through data of US11633499B2, “Anti-TMEM-180 antibody, anticancer drug and cancer testing method” (NATIONAL CANCER CENTER JAPAN, priority 2016, dated 2023).

B1: rat-human chimeric antibody clone 98: rat-human chimeric IgG1 antibody carrying clone 98 variable regions (antibody, V domains shown)
VH: QVQLKESGPGLVQPSQTLSLTCTVSGFSLTRYNVHWVRQPTGKGLEWMGVIWTGGSTDYNSALKSRLSISRDTSKSQVFLKMNSLQTEDIATYYCARDLGYWGQGVMVTVSS
VL: DIVMTQTPLSLSVAIGQSASISCKSSQSLKYRDGKTYLNWVFQSPGQSPKRLIYQVSKLDSGVPDRFSGTGSETDFTLKISRVEAEDLGVYYCCQGSYSPHTFGAGTKLELK
In the case of B1, the “FACS shift, TMEM-180 knockout line versus parent line” value with TMEM-180 (DLD-1 parent line vs TMEM-180 knockout line, FIG. 5) is given as “considerable left shift”. Further, in the assay with TMEM-180 (conclusion from DLD-1 parent vs knockout FACS), the “specific recognition of TMEM-180” value is recorded as “specifically recognize TMEM-180”.

B2: clone 101: rat IgM anti-TMEM-180 monoclonal antibody; variable regions SEQ ID NOs: 15 and 16 (antibody, V domains shown)
VH: MAILVLLLCLVTIPHSVLSQVQLKETGPGLVQPTQTLSITCTVSGFSLTSYYMQWVRQTPGKGLEWMGFIRSGGSTEYNSEFKSRLSISRDTSKNQVFLKMNSLKTEDTGVYYCARAFYGGYYFDYWGQGVMVTVSS
VL: MGIRMESHTRVFIFLLLWLSGADGDIVMTQSPTSISISVGERVTMNCKASQNVGSNVDWYQQKTGQSPKLLIYKASNRYTGVPDRFTGSGSGTDFTFTISNMQAEDLAVYYCMQSNTKYTFGAGTKLELK
On to B2, for which the “fluorescent immunostaining (pattern, intensity)” value with DLD-1 colon cancer cells was “weaker fluorescence intensity than clone 98 and the cytoplasm was also stained”. The “FACS reactivity to brain tumors” value with brain tumor cell lines is recorded as “negative for all of the brain tumors”. The “FACS reactivity to colon cancers” value with colon cancer cell lines is given as “positive for four types of colon cancers”. The “cytocidal effects against DLD-1 cells” value in the assay on colon cancer DLD-1 cells is on record as “demonstrated cytocidal effects”. Also, the “cytocidal effects against K562 cells” value in assay [1] was “did not demonstrate cytocidal effects”.

B3: clone 1052: rat IgM anti-TMEM-180 monoclonal antibody; variable regions SEQ ID NOs: 94 and 95 (antibody, V domains shown)
VH: MAVLVLLLCLVTFPSCVLSQVQLKESGPGLMQPSETLSLTCTVSGFSLTSNGVGWVRQPLGKGLVWMGTIWTGGGTNYNSGVQSRLSISRDTSKSQVFLKMNSLQPEDTGTYYCAREYMGFDYWGQGVMVTVSS
VL: MELISQVFVFLLLWLSGVYGNTVMTQSPTSMFTSVGDRVTMSCKASQNVGINVGWYQQKTGQSPKRLIYWASNRDTGVPDRFTGSGSGTDFTLTISNMQAEDPAIYYCLQHNSYPRTFGGGTKLELK
For the molecule B3, the “Detection Sensitivity of Cancers, P/N” value in assay [2] was “(3/10)”; in assay [3] (Cancer Type: Bladder) it was “(2/4)”; in assay [3] (Cancer Type: Brest) it was “(3/6)”; in assay [3] (Cancer Type: Gastric), “(2/8)”; in assay [3] (Cancer Type: Pancreas), “(4/9)”. Moreover, the “Detection Sensitivity of Cancers, Percentage (%)” value is recorded as 30% in assay [2]; 50% in assay [3] (Cancer Type: Bladder); 50% in assay [3] (Cancer Type: Brest); 25% in assay [3] (Cancer Type: Gastric); 44% in assay [3] (Cancer Type: Pancreas).

B4: clone 1105: rat IgM anti-TMEM-180 monoclonal antibody; variable regions SEQ ID NOs: 102 and 103 (antibody, V domains shown)
VH: B3 VH with T72S, G81A, S89T, Y118E, M119K, D122A, V128T, M129L
VL: B3 VL with T22I, F32S, T117A, K127R
In the case of B4, the “Detection Sensitivity of Cancers, P/N” value in assay [2] is “(3/10)”; in assay [3] (Cancer Type: Brest), “(3/6)”; in assay [3] (Cancer Type: Gastric), “(2/8)”; in assay [3] (Cancer Type: Pancreas), “(4/9)”. The “Detection Sensitivity of Cancers, Percentage (%)” value is 30% in assay [2]; 50% in assay [3] (Cancer Type: Bladder); 50% in assay [3] (Cancer Type: Brest); 25% in assay [3] (Cancer Type: Gastric); 44% in assay [3] (Cancer Type: Pancreas).

B5: clone 212: rat IgM anti-TMEM-180 monoclonal antibody; variable regions SEQ ID NOs: 46 and 47 (antibody, V domains shown)
VH: MDIRLSLAFLVLFIKGVQCEVQLVESGGGLVQPGNSLKLSCAASGFTFSDYAMAWVRQSPKKGLEWVATIIYDGSSTYYRDSVKGRFTISRDNAKSTLYLQMDSLRSEDTATYYCATHWYWYFDFWGPGTMVTVSS
VL: MGVPTQLLGLLLLWITDAICDIQMTQSPASLSASLGETVSIECLASEGISNDLAWYQQKSGKSPQLLIYAASRLQDGVPSRFSGSGSGTRYSLKISGMQPEDEADYFCQQSYKYPLTFGSGTKLEIK
Regarding B5, in the assay on DLD-1 colon cancer cells, the “fluorescent immunostaining (pattern, intensity)” value was “weaker fluorescence intensity than clone 98 and the cytoplasm was also stained”. Besides, the “FACS reactivity to brain tumors” value with brain tumor cell lines was “positive for only one type of brain tumor”. For the same molecule, the “FACS reactivity to colon cancers” value in the assay on colon cancer cell lines is listed as “positive for all six types of colon cancers”.
